Sequences and labels used below:
B1: 368_H10 (antibody, V domains shown)
VH: EVQLLESGGGLVQPGGSLRLSCAASGFTFSSYSMNWVRQAPGKGLEWVSSINYNSGYKGYADSVKGRFTISRDNSKNTLYLQMNSLRAEDTAVYYCARSATWHDTHLDYWGQGTLVTVSS
VL: DIQMTQSPSSLSASVGDRVTITCRASQSIVSYVNWYQQKPGKAPKLVIYAVTSLASGVPSRFSGSGSGTDFTLTISSLQPEDFATYYCQQSYETPLTFGGGTKVEIK
notes: VH and VL only
B2: 375_G10 (antibody, V domains shown)
VH: B1 VH with S33G, S55G, G59S
VL: B1 VL with S31T, V33L, V51A, L54R, A55H, E93D
notes: VH and VL only
B3: 375_B10 (antibody, V domains shown)
VH: B1 VH with S30D, S50G, K58T, G59S
VL: B1 VL with V30L, V33L, V47L, V51A, L54R, A55H, E93D, T94L
notes: VH and VL only
B4: 375_G12 (antibody, V domains shown)
VH: B1 VH with S30D, S33G, N35H, S55G, K58T, G59S
VL: B1 VL with V47L, V51A, L54R, A55H, E93D
notes: VH and VL only
B5: 375_F01 (antibody, V domains shown)
VH: B1 VH with K58T
VL: B1 VL with V33L, V51A, L54R, E93D, T94N
notes: VH and VL only
B6: 376_A01 (antibody, V domains shown)
VH: B1 VH with S30D, S33G, S50N, S55G, K58T
VL: B1 VL with V33L, V47L, V51A, L54R, E93S
notes: VH and VL only
B7: 374_G01 (antibody, V domains shown)
VH: B1 VH with S30D, S50N, K58T, G59S
VL: B1 VL with V30L, S31T, V47L, V51T, L54R, A55H, E93N, T94L
notes: VH and VL only
B8: 374_E04 (antibody, V domains shown)
VH: B1 VH with S50G, G59S
VL: B1 VL with V30L, V33L, V47L, L54R, E93N, T94N
notes: VH and VL only
B9: 374_E06 (antibody, V domains shown)
VH: B1 VH with S30D
VL: B1 VL with V30L, V33L, V47L, V51A, L54R, E93D, T94L
notes: VH and VL only
B10: 374_E03 (antibody, V domains shown)
VH: B1 VH with S50N
VL: B1 VL with V30L, S31T, V51A, E93D
notes: VH and VL only
B11: 373_E08 (antibody, V domains shown)
VH: B1 VH with S30D, S33G, S50G, K58T, G59S
VL: B1 VL with V47L, L54R, T94S
notes: VH and VL only
B12: 374_F09 (antibody, V domains shown)
VH: B1 VH with S33G, K58T, G59S
VL: B1 VL with V30S, V47L, V51A, L54R, E93S
notes: VH and VL only
B13: 374_A08 (antibody, V domains shown)
VH: B1 VH with S30D, S50N, K58T, G59S
VL: B1 VL with S31T, V33L, V47L, V51A, E93D, T94L
notes: VH and VL only
B14: 374_C07 (antibody, V domains shown)
VH: B1 VH with S30D, S50N, S55G, K58T, G59S
VL: B1 VL with V30I, V33L, V47L, V51A, L54R, Y92D, T94L
notes: VH and VL only
B15: 374_B11 (antibody, V domains shown)
VH: B1 VH with S50G, G59S
VL: B1 VL with V30L, S31T, V51A, L54R, E93D, T94L
notes: VH and VL only
B16: 376_G01 (antibody, V domains shown)
VH: B1 VH with S30D, S31D, S50G, G59S
VL: B1 VL with V30L, L54R, T94L
notes: VH and VL only
B17: 373_F02 (antibody, V domains shown)
VH: B1 VH with S30D, S50G, G59S
VL: B1 VL with V30L, S31T, V33L, V47L, V51A, L54R, E93D
notes: VH and VL only
B18: 376_H08 (antibody, V domains shown)
VH: B1 VH with S30D, S33G, S50N, S55G
VL: B1 VL with V30L, S31T, V33L, V47L, V51A, L54R, A55H, Y92D, E93S, T94L
notes: VH and VL only
B19: 374_D11 (antibody, V domains shown)
VH: B1 VH with S30D, S33G, S50N, K58T
VL: B1 VL with V30L, S31T, V33L, V47L, V51A, L54R
notes: VH and VL only
B20: 376_E09 (antibody, V domains shown)
VH: B1 VH with S30D, S50G, G59S
VL: B1 VL with V30L, S31T, V33L, V47L, V51A, L54R, A55H, E93D
notes: VH and VL only
B21: 374_G02 (antibody, V domains shown)
VH: B1 VH with S30D, S50G, K58T, G59S
VL: B1 VL with V30L, S31T, V33L, V47L, V51A, T52S, A55Q, E93D
notes: VH and VL only
B22: 373_D09 (antibody, V domains shown)
VH: B1 VH with S30D, S50G, K58T, G59S
VL: B1 VL with V30L, S31T, V33L, V51A, L54R, A55H, T94N
notes: VH and VL only
B23: 374_G12 (antibody, V domains shown)
VH: B1 VH with S30D, S31D, S33G, S55G, G59S
VL: B1 VL with V30L, S31T, V51A, E93N, T94S
notes: VH and VL only
B24: 373_H12 (antibody, V domains shown)
VH: B1 VH with S31D, S50G
VL: B1 VL with V30L, S31T, V33L, V47L, V51A, L54R, E93N, T94S
notes: VH and VL only
B25: 376_C07 (antibody, V domains shown)
VH: B1 VH with S50G
VL: B1 VL with V30L, V47L, V51A, L54R, A55H, E93D, T94L
notes: VH and VL only
B26: 376_G11 (antibody, V domains shown)
VH: B1 VH with S50G, G59S
VL: B1 VL with S31T, V51A, E93N, T94L
notes: VH and VL only
B27: 374_A05 (antibody, V domains shown)
VH: B1 VH with S31D, S33G, S49A, S50N, S55G, S99G
VL: B1 VL with S31R, V33L, V51A, T94L
B28: 374_C03 (antibody, V domains shown)
VH: B1 VH with S30D, S50G, K58T, G59S, T101N, H106A
VL: B1 VL with V30L, S31T, V33L, V47L, V51A, L54R, E93D, T94S
B29: 365_E05 (antibody, V domains shown)
VH: B1 VH with S33G, N35H, S49A, S50G, S55G, K58T, G59S, T101N, H106A
VL: B1 VL with V47L, V51A, E93D, T94N
B30: 368_F03 (antibody, V domains shown)
VH: B1 VH with S30D, S49A, S50G, K58T, R98K, T101N, H106A
VL: B1 VL with V30I, V33L, V51A, L54R, A55H, E93D, T94S
B31: 365_E07 (antibody, V domains shown)
VH: B1 VH with S30D, S33G, N35H, S50G, K58T, G59S, R98K, T101N
VL: B1 VL with V30L, V33L, V47L, V51A, L54R, E93D, T94N
B32: 368_D10 (antibody, V domains shown)
VH: B1 VH with S30D, S33G, S49A, S50G, K58T, G59S, H106A
VL: B1 VL with V30L, V33L, V51A, L54R, E93D, T94S

Substitutions are numbered along the chain they refer to.

This note sets out measurements from patent US20210380703A1 (RIGEL PHARMACEUTICALS, published 2021).
For optical density in this document: test concentration or dose not given here.

ACVR2A on primary human myotubes, sequence (P27037 20-513): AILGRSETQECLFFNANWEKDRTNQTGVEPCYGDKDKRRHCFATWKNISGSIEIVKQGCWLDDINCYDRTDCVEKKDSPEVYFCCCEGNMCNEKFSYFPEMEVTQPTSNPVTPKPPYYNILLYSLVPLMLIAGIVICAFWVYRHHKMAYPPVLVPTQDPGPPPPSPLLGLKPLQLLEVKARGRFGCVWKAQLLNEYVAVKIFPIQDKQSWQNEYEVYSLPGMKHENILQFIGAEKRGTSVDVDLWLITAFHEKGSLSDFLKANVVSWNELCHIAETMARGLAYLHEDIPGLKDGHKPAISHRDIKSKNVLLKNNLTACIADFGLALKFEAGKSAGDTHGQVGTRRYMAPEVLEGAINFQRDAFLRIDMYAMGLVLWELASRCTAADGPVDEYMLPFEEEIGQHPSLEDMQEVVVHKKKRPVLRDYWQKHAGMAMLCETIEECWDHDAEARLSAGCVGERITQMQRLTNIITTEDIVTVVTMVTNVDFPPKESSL

The target of the first assay is T1, human ACVR2A (human, UniProt P27037 20-135, limits assumed).
T1 construct: also called activin receptor, type II A
T1 sequence (P27037 20-135 limits assumed): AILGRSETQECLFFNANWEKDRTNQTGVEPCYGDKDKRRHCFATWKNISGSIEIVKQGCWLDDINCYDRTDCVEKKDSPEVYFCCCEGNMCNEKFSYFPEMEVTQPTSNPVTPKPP
The assay is described as follows: ELISA. The procedure, abridged:
(§1)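 Monoclonal antibodies were first applied to human or mouse ACVR2A, alongside biotinylated goat anti-human kappa light chain (positive control) and human Fc (negative control); binding was then determined by ELISA.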
Background: An ELISA detects its analyte on a solid surface through an enzyme-linked reagent.
B1 registered an optical density of 2.28 OD.

B2 displayed an optical density of 3.48 OD.

In turn, B3 came in with an optical density of 3.65 OD.

As to B4, the optical density is 3.36 OD.

In turn, B5 showed an optical density of 3.16 OD.

For B6, the optical density came to 3.24 OD.

Take B7: the optical density worked out at 3.34 OD.

Take B8: the optical density was found to be 3.74 OD.

For the molecule B9, the optical density is 3.84 OD.

Molecule B10 returned an optical density of 3.72 OD.

In the case of B11, the optical density was found to be 2.97 OD.

B12 registered an optical density of 3.53 OD.

In turn, B13 gave an optical density of 3.59 OD.

The molecule B14 had an optical density of 3.65 OD.

Turning to B15, the optical density came out at 3.69 OD.

With B16, the optical density was 3.34 OD.

The molecule B17 registered an optical density of 3.62 OD.

As for B18, the optical density was found to be 3.31 OD.

In the case of B19, the optical density was found to be 3.64 OD.

In turn, B20 yielded an optical density of 3.74 OD.

In the case of B21, the optical density was 3.52 OD.

Molecule B22 displayed an optical density of 3.46 OD.

With B23, the optical density was determined as 3.19 OD.

Turning to B24, the optical density turned out to be 3.06 OD.

For the molecule B25, the optical density worked out at 3.7 OD.

B26 had an optical density of 3.65 OD.

For a further assay, the target named is mouse ACVR2A (mouse, UniProt P27038 20-135, limits assumed). Kind of assay: ELISA. An outline of the steps: as §1
mouse ACVR2A, sequence (P27038 20-135 limits assumed): as the sequence (P27037 20-135 limits assumed) above, with K20R, V73I counted along it
B1 registered an optical density of 2.16 OD.

The molecule B2 yielded an optical density of 3.64 OD.

For B3, the optical density worked out at 3.74 OD.

Molecule B4 showed an optical density of 3.29 OD.

For B5, the optical density was found to be 3.46 OD.

B6 gave an optical density of 3.66 OD.

For the molecule B7, the optical density stood at 3.6 OD.

B8 gave an optical density of 3.72 OD.

As to B9, the optical density turned out to be 3.75 OD.

In turn, B10 had an optical density of 3.79 OD.

The molecule B11 returned an optical density of 3.23 OD.

As for B12, the optical density stood at 3.62 OD.

For B13, the optical density turned out to be 3.67 OD.

B14: the optical density was determined as 3.7 OD.

B15 yielded an optical density of 3.66 OD.

B16: the optical density was found to be 3.66 OD.

Consider B17, for which the optical density stood at 3.6 OD.

As for B18, the optical density came out at 3.28 OD.

B19: the optical density stood at 3.58 OD.

Molecule B20 came in with an optical density of 3.76 OD.

With B21, the optical density amounted to 3.54 OD.

In turn, B22 yielded an optical density of 3.5 OD.

Turning to B23, the optical density was 3.21 OD.

B24 registered an optical density of 2.98 OD.

B25 gave an optical density of 3.71 OD.

B26 gave an optical density of 3.6 OD.

Another assay has as its target ACVR2A on primary human myotubes (human, UniProt P27037 20-513). The assay is described as follows: cell-based or functional assay.
Take B27: the “Phospho-SMAD3 Human Skeletal Muscle GDF8” value was found to be 0.0081.

As to B28, the “Phospho-SMAD3 Human Skeletal Muscle GDF8” value came out at 0.0094.

Regarding B29, the “Phospho-SMAD3 Human Skeletal Muscle GDF8” value turned out to be 0.244.

Consider B30, for which the “Phospho-SMAD3 Human Skeletal Muscle GDF8” value was determined as 0.812.

B31: the “Phospho-SMAD3 Human Skeletal Muscle GDF8” value was 0.518.

For B32, the “Phospho-SMAD3 Human Skeletal Muscle GDF8” value came to 0.0601.

A further assay concerns the target T2, biotinylated goat anti-human kappa light chain.
T2 construct: Positive control of the ELISA
The assay is described as follows: ELISA, positive control. Also: test concentration or dose not given here. An outline of the steps: as §1
Regarding B1, the optical density is 3.36 OD.

Molecule B2 returned an optical density of 3.3 OD.

Consider B3, for which the optical density turned out to be 3.14 OD.

Molecule B4 returned an optical density of 3.3 OD.

B5 had an optical density of 2.96 OD.

On to B6, for which the optical density turned out to be 2.98 OD.

B7 registered an optical density of 2.92 OD.

The molecule B8 displayed an optical density of 3.19 OD.

For B9, the optical density is 3.25 OD.

As to B10, the optical density was found to be 3.13 OD.

Consider B11, for which the optical density worked out at 3.2 OD.

Take B12: the optical density was 3.14 OD.

For the molecule B13, the optical density is 2.94 OD.

B14 yielded an optical density of 3.22 OD.

As for B15, the optical density came out at 3.17 OD.

In turn, B16 registered an optical density of 3.18 OD.

On to B17, for which the optical density is 3.15 OD.

The molecule B18 registered an optical density of 3.53 OD.

The molecule B19 gave an optical density of 2.9 OD.

Molecule B20 registered an optical density of 3.48 OD.

Take B21: the optical density was 3.17 OD.

For the molecule B22, the optical density turned out to be 3.04 OD.

B23 gave an optical density of 3.15 OD.

B24 returned an optical density of 3 OD.

As for B25, the optical density came to 3.42 OD.

B26 had an optical density of 3.54 OD.
